Test results: patent publication US10081665B2, “Peptides and combination of peptides for use in immunotherapy against various tumors” (immatics biotechnologies GmbH, priority 2015, dated 2018)

Each substance was assayed against HLA-A*02:01 (Homo sapiens, UniProt P04439, D140Y/D185E/D98H/E176V/E277Q/G131W/G231S/I119V/I121R/I166T/I218V/L300P/L318F/N151K/N90K/P208A/P217A/Q86G/Q94H/R138H/R169H/T345S) (assay: MHC binding assay (UV-ligand exchange, beta2m ELISA)). Details: binding to HLA-A*02:01, β2m ELISA.
Outline: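 Peptide-MHC complexes made by UV-ligand exchange of a UV-cleavable peptide for test peptide; exchange yield measured by β2m ELISA on streptavidin-coated plates with samples diluted 100-fold, HRP anti-β2m and TMB read at 450 nm. Refolded HLA-A*02:01/MLA-001 monomers (15-500 ng/ml) served as standards.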

| Substance | Peptide exchange (MHC class I binding score, peptide exchange yield) |
| --- | --- |
| 192 (TLLPSSGLVTL; listed as Homo sapiens) [compound 192] | ++ (≥20% = ++) |
| 75 (ALLDGALQL; listed as Homo sapiens) [compound 75] | +++ (≥50 = +++) |
| 177 (ALINVLNAL; listed as Homo sapiens) [compound 177] | +++ (≥50 = +++) |
| 231 (LLDDIFIRL; listed as Homo sapiens) [compound 231] | +++ (≥50 = +++) |
| 241 (KQFEGTVEI; listed as Homo sapiens) [compound 241] | +++ (≥50 = +++) |
| 212 (MTLSEIHAV; listed as Homo sapiens) [compound 212] | ++ (≥20% = ++) |
| 181 (LLWAPTAQA; listed as Homo sapiens) [compound 181] | +++ (≥50 = +++) |
| 139 (IILENIQSL; listed as Homo sapiens) [compound 139] | +++ (≥50 = +++) |
| 187 (SILKEDPFL; listed as Homo sapiens) [compound 187] | ++ (≥20% = ++) |
| 182 (GLQDGFQITV; listed as Homo sapiens) [compound 182] | +++ (≥50 = +++) |
| 252 (SLMEKNQSL; listed as Homo sapiens) [compound 252] | ++ (≥20% = ++) |
| 149 (NMADGQLHQV; listed as Homo sapiens) [compound 149] | ++ (≥20% = ++) |
| 274 (TLYNPERTITV; listed as Homo sapiens) [compound 274] | +++ (≥50 = +++) |
| 91 (LLPSIFLMV; listed as Homo sapiens) [compound 91] | ++ (≥20% = ++) |
| 199 (SVADLAHVL; listed as Homo sapiens) [compound 199] | ++ (≥20% = ++) |
| 134 (SLYKSFLQL; listed as Homo sapiens) [compound 134] | ++ (≥20% = ++) |
| 100 (ALQSFEFRV; listed as Homo sapiens) [compound 100] | +++ (≥50 = +++) |
| 21 (YLMDDFSSL; listed as Homo sapiens) [compound 21] | +++ (≥50 = +++) |
| 25 (LLWGHPRVALA; listed as Homo sapiens) [compound 25] | +++ (≥50 = +++) |
| 53 (AQHLSTLLL; listed as Homo sapiens) [compound 53] | + (≥10% = +) |
| 40 (KIWEELSVLEV; listed as Homo sapiens) [compound 40] | +++ (≥50 = +++) |
| 3 (RVIDDSLVVGV; listed as Homo sapiens) [compound 3] | +++ (≥50 = +++) |
| 42 (KQMSISTGL; listed as Homo sapiens) [compound 42] | ++ (≥20% = ++) |
| 168 (VIFEGEPMYL; listed as Homo sapiens) [compound 168] | +++ (≥50 = +++) |

| Substance | Peptide exchange (MHC class I binding score, peptide exchange yield) |
| --- | --- |
| 143 (MLWESIMRV; listed as Homo sapiens) [compound 143] | +++ (≥50 = +++) |
| 136 (LLWDAPAKC; listed as Homo sapiens) [compound 136] | +++ (≥50 = +++) |
| 227 (SEMEELPSV; listed as Homo sapiens) [compound 227] | + (≥10% = +) |
| 283 (ALSELLQQV; listed as Homo sapiens) [compound 283] | +++ (≥50 = +++) |
| 128 (SILTNISEV; listed as Homo sapiens) [compound 128] | ++ (≥20% = ++) |
| 5 (GLVDIMVHL; listed as Homo sapiens) [compound 5] | +++ (≥50 = +++) |
| 218 (SLTGANITV; listed as Homo sapiens) [compound 218] | +++ (≥50 = +++) |
| 258 (QLVQRVASV; listed as Homo sapiens) [compound 258] | ++ (≥20% = ++) |
| 169 (ALADLSVAV; listed as Homo sapiens) [compound 169] | +++ (≥50 = +++) |
| 198 (ILTNKVVSV; listed as Homo sapiens) [compound 198] | ++ (≥20% = ++) |
| 71 (HMSGKLTNV; listed as Homo sapiens) [compound 71] | ++ (≥20% = ++) |
| 194 (KLLEEVQLL; listed as Homo sapiens) [compound 194] | ++ (≥20% = ++) |
| 271 (VLIEYNFSI; listed as Homo sapiens) [compound 271] | +++ (≥50 = +++) |
| 158 (YLDPLWHQL; listed as Homo sapiens) [compound 158] | +++ (≥50 = +++) |
| 278 (VLEDKVLSV; listed as Homo sapiens) [compound 278] | +++ (≥50 = +++) |
| 166 (LLGDSSFFL; listed as Homo sapiens) [compound 166] | +++ (≥50 = +++) |
| 146 (VVAAHLAGA; listed as Homo sapiens) [compound 146] | ++ (≥20% = ++) |
| 37 (QIVELIEKI; listed as Homo sapiens) [compound 37] | ++ (≥20% = ++) |
| 195 (VIIQNLPAL; listed as Homo sapiens) [compound 195] | +++ (≥50 = +++) |
| 277 (KLQEELNKV; listed as Homo sapiens) [compound 277] | +++ (≥50 = +++) |
| 144 (FLISQTPLL; listed as Homo sapiens) [compound 144] | +++ (≥50 = +++) |
| 54 (YLVPGLVAA; listed as Homo sapiens) [compound 54] | +++ (≥50 = +++) |
| 41 (IVTEIISEI; listed as Homo sapiens) [compound 41] | +++ (≥50 = +++) |
